B1: GR20-FLAG peptide (peptide)
peptide: GRGRGRGRGRGRGRGRGRGRGRGRGRGRGRGRGRGRGRGR
B2: PR20-FLAG peptide (peptide)
peptide: PRPRPRPRPRPRPRPRPRPRPRPRPRPRPRPRPRPRPRPR

Target: His-NPM1 (human, UniProt P06748 1-294)
Test: pull-down

Sequence of His-NPM1 (P06748 whole entry): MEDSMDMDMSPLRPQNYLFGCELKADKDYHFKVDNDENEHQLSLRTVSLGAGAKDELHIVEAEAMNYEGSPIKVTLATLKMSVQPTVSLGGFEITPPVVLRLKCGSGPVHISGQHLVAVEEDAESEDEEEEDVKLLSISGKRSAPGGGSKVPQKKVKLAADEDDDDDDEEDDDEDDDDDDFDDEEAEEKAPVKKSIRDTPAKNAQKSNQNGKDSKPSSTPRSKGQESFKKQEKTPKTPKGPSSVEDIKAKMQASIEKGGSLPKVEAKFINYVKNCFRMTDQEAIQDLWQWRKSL

| Binder | binding result |
| --- | --- |
| B1 | binds |
| B2 | binds |

Source: publication PMC5079111 (Cell, 2016)
